B1: NU160_HUMAN (protein, UniProt Q12769 1-1436, looked up)
Nuclear pore complex protein …: MLHLSAAPPAPPPEVTATARPCLCSVGRRGDGGKMAAAGALERSFVELSGAERERPRHFREFTVCSIGTANAVAGAVKYSESAGGFYYVESGKLFSVTRNRFIHWKTSGDTLELMEESLDINLLNNAIRLKFQNCSVLPGGVYVSETQNRVIILMLTNQTVHRLLLPHPSRMYRSELVVDSQMQSIFTDIGKVDFTDPCNYQLIPAVPGISPNSTASTAWLSSDGEALFALPCASGGIFVLKLPPYDIPGMVSVVELKQSSVMQRLLTGWMPTAIRGDQSPSDRPLSLAVHCVEHDAFIFALCQDHKLRMWSYKEQMCLMVADMLEYVPVKKDLRLTAGTGHKLRLAYSPTMGLYLGIYMHAPKRGQFCIFQLVSTESNRYSLDHISSLFTSQETLIDFALTSTDIWALWHDAENQTVVKYINFEHNVAGQWNPVFMQPLPEEEIVIRDDQDPREMYLQSLFTPGQFTNEALCKALQIFCRGTERNLDLSWSELKKEVTLAVENELQGSVTEYEFSQEEFRNLQQEFWCKFYACCLQYQEALSHPLALHLNPHTNMVCLLKKGYLSFLIPSSLVDHLYLLPYENLLTEDETTISDDVDIARDVICLIKCLRLIEESVTVDMSVIMEMSCYNLQSPEKAAEQILEDMITIDVENVMEDICSKLQEIRNPIHAIGLLIREMDYETEVEMEKGFNPAQPLNIRMNLTQLYGSNTAGYIVCRGVHKIASTRFLICRDLLILQQLLMRLGDAVIWGTGQLFQAQQDLLHRTAPLLLSYYLIKWGSECLATDVPLDTLESNLQHLSVLELTDSGALMANRFVSSPQTIVELFFQEVARKHIISHLFSQPKAPLSQTGLNWPEMITAITSYLLQLLWPSNPGCLFLECLMGNCQYVQLQDYIQLLHPWCQVNVGSCRFMLGRCYLVTGEGQKALECFCQAASEVGKEEFLDRLIRSEDGEIVSTPRLQYYDKVLRLLDVIGLPELVIQLATSAITEAGDDWKSQATLRTCIFKHHLDLGHNSQAYEALTQIPDSSRQLDCLRQLVVVLCERSQLQDLVEFPYVNLHNEVVGIIESRARAVDLMTHNYYELLYAFHIYRHNYRKAGTVMFEYGMRLGREVRTLRGLEKQGNCYLAALNCLRLIRPEYAWIVQPVSGAVYDRPGASPKRNHDGECTAAPTNRQIEILELEDLEKECSLARIRLTLAQHDPSAVAVAGSSSAEEMVTLLVQAGLFDTAISLCQTFKLPLTPVFEGLAFKCIKLQFGGEAAQAEAWAWLAANQLSSVITTKESSATDEAWRLLSTYLERYKVQNNLYHHCVINKLLSHGVPLPNWLINSYKKVDAAELLRLYLNYDLLEEAVDLVSEYVDAVLGKGHQYFGIEFPLSATAPMVWLPYSSIDQLLQALGENSANSHNIALSQKILDKLEDYQQKVDKATRDLLYRRTL
B2: NOLC1_HUMAN (protein, UniProt Q14978 1-699, looked up)
Nucleolar and coiled-body …: MADAGIRRVVPSDLYPLVLGFLRDNQLSEVANKFAKATGATQQDANASSLLDIYSFWLKSAKVPERKLQANGPVAKKAKKKASSSDSEDSSEEEEEVQGPPAKKAAVPAKRVGLPPGKAAAKASESSSSEESSDDDDEEDQKKQPVQKGVKPQAKAAKAPPKKAKSSDSDSDSSSEDEPPKNQKPKITPVTVKAQTKAPPKPARAAPKIANGKAASSSSSSSSSSSSDDSEEEKAAATPKKTVPKKQVVAKAPVKAATTPTRKSSSSEDSSSDEEEEQKKPMKNKPGPYSSVPPPSAPPPKKSLGTQPPKKAVEKQQPVESSEDSSDESDSSSEEEKKPPTKAVVSKATTKPPPAKKAAESSSDSSDSDSSEDDEAPSKPAGTTKNSSNKPAVTTKSPAVKPAAAPKQPVGGGQKLLTRKADSSSSEEESSSSEEEKTKKMVATTKPKATAKAALSLPAKQAPQGSRDSSSDSDSSSSEEEEEKTSKSAVKKKPQKVAGGAAPSKPASAKKGKAESSNSSSSDDSSEEEEEKLKGKGSPRPQAPKANGTSALTAQNGKAAKNSEEEEEEKKKAAVVVSKSGSLKKRKQNEAAKEAETPQAKKIKLQTPNTFPKRKKGEKRASSPFRRVREEEIEVDSRVADNSFDAKRGAAGDWGERANQVLKFTKGKSFRHEKTKKKRGSYRGGSISVQVNSIKFDSE
B3: CAPR1_HUMAN (protein, UniProt Q14444 2-709, looked up)
Caprin-1: PSATSHSGSGSKSSGPPPPSGSSGSEAAAGAGAAAPASQHPATGTGAVQTEAMKQILGVIDKKLRNLEKKKGKLDDYQERMNKGERLNQDQLDAVSKYQEVTNNLEFAKELQRSFMALSQDIQKTIKKTARREQLMREEAEQKRLKTVLELQYVLDKLGDDEVRTDLKQGLNGVPILSEEELSLLDEFYKLVDPERDMSLRLNEQYEHASIHLWDLLEGKEKPVCGTTYKVLKEIVERVFQSNYFDSTHNHQNGLCEEEEAASAPAVEDQVPEAEPEPAEEYTEQSEVESTEYVNRQFMAETQFTSGEKEQVDEWTVETVEVVNSLQQQPQAASPSVPEPHSLTPVAQADPLVRRQRVQDLMAQMQGPYNFIQDSMLDFENQTLDPAIVSAQPMNPTQNMDMPQLVCPPVHSESRLAQPNQVPVQPEATQVPLVSSTSEGYTASQPLYQPSHATEQRPQKEPIDQIQATISLNTDQTTASSSLPAASQPQVFQAGTSKPLHSSGINVNAAPFQSMQTVFNMNAPVPPVNEPETLKQQNQYQASYNQSFSSQPHQVEQTELQQEQLQTVVGTYHGSPDQSHQVTGNHQQPPQQNTGFPRSNQPYYNSRGVSRGGSRGARGLMNGYRGPANGFRGGYDGYRPSFSNTPNSGYTQSQFSAPRDYSGYQRDGYQQNFKRGSGQSGPRGAPRGRGGPPRPNRGMPQMNTQQVN
B4: MCM5_HUMAN (protein, UniProt P33992 2-734, looked up)
DNA replication licensing …: SGFDDPGIFYSDSFGGDAQADEGQARKSQLQRRFKEFLRQYRVGTDRTGFTFKYRDELKRHYNLGEYWIEVEMEDLASFDEDLADYLYKQPAEHLQLLEEAAKEVADEVTRPRPSGEEVLQDIQVMLKSDASPSSIRSLKSDMMSHLVKIPGIIIAASAVRAKATRISIQCRSCRNTLTNIAMRPGLEGYALPRKCNTDQAGRPKCPLDPYFIMPDKCKCVDFQTLKLQELPDAVPHGEMPRHMQLYCDRYLCDKVVPGNRVTIMGIYSIKKFGLTTSRGRDRVGVGIRSSYIRVLGIQVDTDGSGRSFAGAVSPQEEEEFRRLAALPNVYEVISKSIAPSIFGGTDMKKAIACLLFGGSRKRLPDGLTRRGDINLLMLGDPGTAKSQLLKFVEKCSPIGVYTSGKGSSAAGLTASVMRDPSSRNFIMEGGAMVLADGGVVCIDEFDKMREDDRVAIHEAMEQQTISIAKAGITTTLNSRCSVLAAANSVFGRWDETKGEDNIDFMPTILSRFDMIFIVKDEHNEERDVMLAKHVITLHVSALTQTQAVEGEIDLAKLKKFIAYCRVKCGPRLSAEAAEKLKNRYIIMRSGARQHERDSDRRSSIPITVRQLEAIVRIAEALSKMKLQPFATEADVEEALRLFQVSTLDAALSGTLSGVEGFTSQEDQEMLSRIEKQLKRRFAIGSQVSEHSIIKDFTKQKYPEHAIHKVLQLMLRRGEIQHRMQRKVLYRLK
B5: DDX5_HUMAN (protein, UniProt P17844 1-614, looked up)
Probable ATP-dependent RNA …: MSGYSSDRDRGRDRGFGAPRFGGSRAGPLSGKKFGNPGEKLVKKKWNLDELPKFEKNFYQEHPDLARRTAQEVETYRRSKEITVRGHNCPKPVLNFYEANFPANVMDVIARQNFTEPTAIQAQGWPVALSGLDMVGVAQTGSGKTLSYLLPAIVHINHQPFLERGDGPICLVLAPTRELAQQVQQVAAEYCRACRLKSTCIYGGAPKGPQIRDLERGVEICIATPGRLIDFLECGKTNLRRTTYLVLDEADRMLDMGFEPQIRKIVDQIRPDRQTLMWSATWPKEVRQLAEDFLKDYIHINIGALELSANHNILQIVDVCHDVEKDEKLIRLMEEIMSEKENKTIVFVETKRRCDELTRKMRRDGWPAMGIHGDKSQQERDWVLNEFKHGKAPILIATDVASRGLDVEDVKFVINYDYPNSSEDYIHRIGRTARSTKTGTAYTFFTPNNIKQVSDLISVLREANQAINPKLLQLVEDRGSGRSRGRGGMKDDRRDRYSAGKRGGFNTFRDRENYDRGYSSLLKRDFGAKTQNGVYSAANYTNGSFGSNFVSAGIQTSFRTGNPTGTYQNGYDSTQQYGSNVPNMHNGMNQQAYAYPATAAAPMIGYPMPTGYSQ
B6: MCM6_HUMAN (protein, UniProt Q14566 1-821, looked up)
DNA replication licensing …: MDLAAAAEPGAGSQHLEVRDEVAEKCQKLFLDFLEEFQSSDGEIKYLQLAEELIRPERNTLVVSFVDLEQFNQQLSTTIQEEFYRVYPYLCRALKTFVKDRKEIPLAKDFYVAFQDLPTRHKIRELTSSRIGLLTRISGQVVRTHPVHPELVSGTFLCLDCQTVIRDVEQQFKYTQPNICRNPVCANRRRFLLDTNKSRFVDFQKVRIQETQAELPRGSIPRSLEVILRAEAVESAQAGDKCDFTGTLIVVPDVSKLSTPGARAETNSRVSGVDGYETEGIRGLRALGVRDLSYRLVFLACCVAPTNPRFGGKELRDEEQTAESIKNQMTVKEWEKVFEMSQDKNLYHNLCTSLFPTIHGNDEVKRGVLLMLFGGVPKTTGEGTSLRGDINVCIVGDPSTAKSQFLKHVEEFSPRAVYTSGKASSAAGLTAAVVRDEESHEFVIEAGALMLADNGVCCIDEFDKMDVRDQVAIHEAMEQQTISITKAGVKATLNARTSILAAANPISGHYDRSKSLKQNINLSAPIMSRFDLFFILVDECNEVTDYAIARRIVDLHSRIEESIDRVYSLDDIRRYLLFARQFKPKISKESEDFIVEQYKHLRQRDGSGVTKSSWRITVRQLESMIRLSEAMARMHCCDEVQPKHVKEAFRLLNKSIIRVETPDVNLDQEEEIQMEVDEGAGGINGHADSPAPVNGINGYNEDINQESAPKASLRLGFSEYCRISNLIVLHLRKVEEEEDESALKRSELVNWYLKEIESEIDSEEELINKKRIIEKVIHRLTHYDHVLIELTQAGLKGSTEGSESYEEDPYLVVNPNYLLED
B7: MCCA_HUMAN (protein, UniProt Q96RQ3 42-725, looked up)
Methylcrotonoyl-CoA …: TTATGRNITKVLIANRGEIACRVMRTAKKLGVQTVAVYSEADRNSMHVDMADEAYSIGPAPSQQSYLSMEKIIQVAKTSAAQAIHPGCGFLSENMEFAELCKQEGIIFIGPPPSAIRDMGIKSTSKSIMAAAGVPVVEGYHGEDQSDQCLKEHARRIGYPVMIKAVRGGGGKGMRIVRSEQEFQEQLESARREAKKSFNDDAMLIEKFVDTPRHVEVQVFGDHHGNAVYLFERDCSVQRRHQKIIEEAPAPGIKSEVRKKLGEAAVRAAKAVNYVGAGTVEFIMDSKHNFCFMEMNTRLQVEHPVTEMITGTDLVEWQLRIAAGEKIPLSQEEITLQGHAFEARIYAEDPSNNFMPVAGPLVHLSTPRADPSTRIETGVRQGDEVSVHYDPMIAKLVVWAADRQAALTKLRYSLRQYNIVGLHTNIDFLLNLSGHPEFEAGNVHTDFIPQHHKQLLLSRKAAAKESLCQAALGLILKEKAMTDTFTLQAHDQFSPFSSSSGRRLNISYTRNMTLKDGKNNVAIAVTYNHDGSYSMQIEDKTFQVLGNLYSEGDCTYLKCSVNGVASKAKLIILENTIYLFSKEGSIEIDIPVPKYLSSVSSQETQGGPLAPMTGTIEKVFVKAGDKVKAGDSLMVMIAMKMEHTIKSPKDGTVKKVFYREGAQANRHTPLVEFEEEESDKRESE

What follows are molecules tested on KDM4A-I71AzF (assay: CASI: photo-crosslinking with HEK293T cell extracts, StrepTactin enrichment and LC-MS/MS proteomics). Settings: sheet "Final results but with 0.01".
Type: binding, human
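Further: lysates from HEK293T cells pretreated with a KDM4 inhibitor to raise proteome methylation, affinity-purified after ±UV, gel-resolved, trypsin-digested, with exclusive unique peptides per protein averaged per condition.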

Going from B1 to B2, the “Fold change (+UV/-UV)” value rises from 0.5 to 1.

Going from B3 to B4, the “Fold change (+UV/-UV)” value rises from 0.5 to 0.9167.

First: B5
Second: B6
The “Fold change (+UV/-UV)” value of the first is higher: 1.6 for the first, 0.75 for the second.

With B7 the “Fold change (+UV/-UV)” value was 0.
